In one test the target is pidd1_human PIDD1 (UniProt Q9HB75).
In the next test the target is casp2_rat Casp2 (UniProt P55215).
Chain of casp2_rat Casp2 (P55215 whole entry): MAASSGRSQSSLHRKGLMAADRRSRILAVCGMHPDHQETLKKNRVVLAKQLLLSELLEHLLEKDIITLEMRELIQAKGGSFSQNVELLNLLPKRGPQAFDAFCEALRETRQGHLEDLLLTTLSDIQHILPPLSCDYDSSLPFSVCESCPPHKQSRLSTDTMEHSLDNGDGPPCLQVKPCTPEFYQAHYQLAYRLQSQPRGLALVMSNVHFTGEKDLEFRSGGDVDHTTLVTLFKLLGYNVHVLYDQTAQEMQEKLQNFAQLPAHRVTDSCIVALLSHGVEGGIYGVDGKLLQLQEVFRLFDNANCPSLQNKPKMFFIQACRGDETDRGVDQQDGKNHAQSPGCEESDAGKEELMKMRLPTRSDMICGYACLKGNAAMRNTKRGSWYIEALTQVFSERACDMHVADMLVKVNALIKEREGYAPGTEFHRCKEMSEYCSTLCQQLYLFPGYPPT

Chain of pidd1_human PIDD1 (Q9HB75 whole entry): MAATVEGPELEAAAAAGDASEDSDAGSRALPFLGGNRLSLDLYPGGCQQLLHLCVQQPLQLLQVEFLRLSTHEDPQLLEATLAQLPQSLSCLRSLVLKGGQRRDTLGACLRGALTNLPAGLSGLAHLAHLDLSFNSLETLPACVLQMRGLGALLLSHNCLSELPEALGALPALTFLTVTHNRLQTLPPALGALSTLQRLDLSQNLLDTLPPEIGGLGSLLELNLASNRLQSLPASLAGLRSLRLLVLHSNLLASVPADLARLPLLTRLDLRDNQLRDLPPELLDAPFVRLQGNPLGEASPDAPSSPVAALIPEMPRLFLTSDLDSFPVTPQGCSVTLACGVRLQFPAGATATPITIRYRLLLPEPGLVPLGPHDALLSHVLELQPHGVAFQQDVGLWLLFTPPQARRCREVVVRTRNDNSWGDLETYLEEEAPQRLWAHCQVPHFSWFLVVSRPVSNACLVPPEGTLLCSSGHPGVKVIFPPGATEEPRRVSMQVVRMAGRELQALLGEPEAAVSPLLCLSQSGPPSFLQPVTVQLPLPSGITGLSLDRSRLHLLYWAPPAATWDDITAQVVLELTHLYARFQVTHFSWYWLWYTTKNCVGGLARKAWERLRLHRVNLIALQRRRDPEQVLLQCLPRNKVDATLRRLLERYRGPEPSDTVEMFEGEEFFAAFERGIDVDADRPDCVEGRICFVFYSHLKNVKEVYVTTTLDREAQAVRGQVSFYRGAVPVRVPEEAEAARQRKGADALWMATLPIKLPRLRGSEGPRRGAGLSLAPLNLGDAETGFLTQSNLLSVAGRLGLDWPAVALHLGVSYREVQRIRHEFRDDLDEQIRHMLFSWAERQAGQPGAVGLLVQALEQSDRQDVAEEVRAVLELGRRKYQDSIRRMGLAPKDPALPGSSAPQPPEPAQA
Chain of Death domain-containing protein CRADD (Homo sapiens), P78560 R170H (P78560 whole entry R170H, the tested form may be a part): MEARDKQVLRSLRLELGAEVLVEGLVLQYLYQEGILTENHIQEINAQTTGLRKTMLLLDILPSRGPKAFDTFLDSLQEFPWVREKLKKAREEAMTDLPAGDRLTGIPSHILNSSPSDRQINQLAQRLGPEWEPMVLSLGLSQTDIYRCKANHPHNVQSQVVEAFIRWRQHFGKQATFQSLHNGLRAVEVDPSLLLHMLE
Chain of Death domain-containing protein CRADD (Homo sapiens), P78560 F164C (P78560 whole entry F164C, the tested form may be a part): as the sequence (P78560 whole entry R170H, the tested form may be a part) above, with F164C, H170R counted along it
Chain of Death domain-containing protein CRADD (Homo sapiens), P78560 G128R (P78560 whole entry G128R, the tested form may be a part): as the sequence (P78560 whole entry R170H, the tested form may be a part) above, with G128R, H170R counted along it
Chain of Death domain-containing protein CRADD (Homo sapiens), P78560 R170C (P78560 whole entry R170C, the tested form may be a part): as the sequence (P78560 whole entry R170H, the tested form may be a part) above, with H170C counted along it

As for “Death domain-containing protein CRADD (Homo sapiens), P78560 F164C”, the “effect of a mutation on the interaction” value with pidd1_human PIDD1 and in the test with casp2_rat Casp2 was “with no effect” in each case.

As to “Death domain-containing protein CRADD (Homo sapiens), P78560 G128R”, the “effect of a mutation on the interaction” value with pidd1_human PIDD1 was “disrupting interaction strength”; in the test with casp2_rat Casp2, “decreasing interaction strength”.

For “Death domain-containing protein CRADD (Homo sapiens), P78560 R170C”, the “effect of a mutation on the interaction” value with pidd1_human PIDD1 and with casp2_rat Casp2 was “decreasing interaction strength” throughout.

As for “Death domain-containing protein CRADD (Homo sapiens), P78560 R170H”, the “effect of a mutation on the interaction” value with pidd1_human PIDD1 and with casp2_rat Casp2 was “decreasing interaction strength” each time.
